The record followed here is patent publication US20210122795A1 (CITY OF HOPE, published 2021).

Ends that are not written are not given here.

B1: Peptide 12 (chemically synthesized cyclic peptide) (peptide)
peptide: CSVLPPFMC
modifications: also: cyclic peptide, ring type not given here
notes: Immobilized on a CM5 chip in the SPR; also called Pep12
B2: mLcn2 (modified lipocalin2, monomeric) (designed binder)
chain: QDSTSDLIPAPPLSKVPLQQNFQDNQFHGKWYVVGLAGNRILRDDQHPMNMYATIYELKEDKSYNVTSVISSHKKCEYTIATFVPGSQPGEFTLGNIKSYGDKTSYLVRVVSTDYNQYAVVFFKLAEDNAEFFAITIYGRTKELASELKENFIRFSKSLGLPENHIVFPVPIDQCIDG
notes: Engineered lipocalin 2; also called monomeric mLCN2
B4: Peptide 16 (chemically synthesized cyclic peptide) (peptide)
peptide: CWSPLPFMC
modifications: also: cyclic peptide, ring type not given here
notes: Immobilized on a CM5 chip in the SPR; also called Pep16

Assay [1] addresses B2. Briefly: crystal structures of the peptide-mLcn2 complexes.
Assay [2] has as its target T1, CTLA-4-Fc (recombinant bivalent CTLA-4 fused to the human IgG1 Fc) (human, UniProt P16410 36-161, Homodimer through the IgG1 Fc (bivalent); the Fc is left out of the letters.).
T1 construct: also called dimeric CTLA-4-Fc; CTLA-4 (in the SEC legends); not shown: human IgG1 Fc and any linker of the CTLA-4-Fc fusion
As to the kind of experiment: SPR; dimeric CTLA-4-Fc immobilized at medium density on a CM5 chip; analyte 3-1000 nM. How it is done: (§1) FIG. 10A: SPR analysis. Dimeric CTLA-4-Fc was immobilized at medium density to a CM5 chip. A range of 3-1000 nM monomeric mLCN2 (top) and 3-300 nM dimeric mLCN2-Fc (bottom) analytes were used for kinetics analyses. […] Concentration of analytes is 1000; 300; 30; and 3 nM.
A general note: In SPR one partner is held on a chip, and binding of the other changes the refractive index at the surface.

Assay [3] addresses B4. Briefly: SPR; analyte mLcn2 flowed over Peptide16 immobilized on a CM5 chip; analyte mLcn2 flowed over Peptide16 immobilized to a CM5 chip. The source says: FIG. 14A: mLCN2 vs. Pep16. Surface plasmon resonance of analyte mLcn2 flowed over ligand Peptide16 immobilized to a CM5 chip. Representative results are shown from three independent experiments.
Assay [4] addresses B1. As to the kind of experiment: SPR; analyte mLcn2-Fc flowed over Peptide12 immobilized on a CM5 chip. The source says:
FIG. 14B: mLCN2-Fc vs. Pep12. Surface plasmon resonance of analyte mLcn2-Fc flowed over ligand Peptide12 immobilized to a CM5 chip. Representative results are shown from three independent experiments.

Assay [5] addresses T1, CTLA-4-Fc (recombinant bivalent CTLA-4 …). Briefly: SPR; dimeric CTLA-4-Fc immobilized at medium density on a CM5 chip; analyte 3-300 nM. The method, then: as §1

T1 sequence (P16410 36-161 limits assumed): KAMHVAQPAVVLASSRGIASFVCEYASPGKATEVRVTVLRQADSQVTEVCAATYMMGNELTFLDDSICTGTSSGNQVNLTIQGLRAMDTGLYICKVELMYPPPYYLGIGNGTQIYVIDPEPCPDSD

As to B1, the binding result in assay [1] is recorded as “binds”. As usually defined, the koff is the rate constant with which the complex falls apart. By kon is commonly meant the second-order rate constant of association. For orientation: Kd means the free concentration of one partner at which half of the binding sites on the other are occupied at equilibrium, for simple one-to-one binding. For B2, in assay [2], the koff worked out at 0.0002 s⁻¹ and the kon stood at 36000 M⁻¹ s⁻¹. This molecule also had a Kd in assay [3] of 4.6 µM.

B3: mLcn2-Fc (unmodified, without N-terminal mask) (Fc fusion)
chain: QDSTSDLIPAPPLSKVPLQQNFQDNQFHGKWYVVGLAGNRILRDDQHPMNMYATIYELKEDKSYNVTSVISSHKKCEYTIATFVPGSQPGEFTLGNIKSYGDKTSYLVRVVSTDYNQYAVVFFKLAEDNAEFFAITIYGRTKELASELKENFIRFSKSLGLPENHIVFPVPIDQCIDG
notes: also called dimeric mLCN2-Fc; unmodified mLcn2-Fc; not shown: flexible linker between mLcn2 and Fc; human IgG1 Fc domain
In turn, B3 showed a dissociation constant Kd in assay [4] of 3.4 µM. Further, in assay [5], the kon was found to be 10000 M⁻¹ s⁻¹. As for B4, the binding result in assay [1] was “binds”.
